The values that follow come from IntAct's records for PubMed 20581866.

First the molecules themselves.
B1: ATPase family AAA domain-containing protein 2 (Mus musculus), Q8CDM1 (parent)
chain: MSLLKMRRHAIHSSDSTSSSSSEDDCFERRTKRNRNRAINRCLPLNFRKDEIRGIYKDRMKIGASLADVDPMQLDTSVRFDSVGGLSSHIAALKEMVVFPLLYPEVFEKFKIQPPRGCLFYGPPGTGKTLVARALANECSRGDKRVAFFMRKGADCLSKWVGESERQLRLLFDQAYQMRPAIIFFDEIDGLAPVRSSRQDQIHSSIVSTLLALMDGLDSRGEIVVIGATNRLDSIDPALRRPGRFDREFLFSLPDKNARKEILKIHTRDWNPKPVDMFLEELAEHCVGYCGADIKSICAEAALCALRRRYPQIYTTSEKLQLDLSSITISAKDFEAALQKIRPASQRAVTSPGQALSAIVKPLLQNTVHRILDALQKVFPHVEVGTNKSLNSDVSCPFLESDLAYSDDDTPSVYENGLSQKENLNFLHLNRNACYQPMSFRPRLLIVGEPGFGQSSHLAPAVIHALEKFTVYTLDIPVLFGISTTSPEEACSQMIREAKRTAPSIVYVPHIHLWWEIVGPTLKATFTTLLQTIPSFAPVLLLATSEKPYSALPEEVQELFTHDYGEIFNVQLPDKEERTKFFEDLILKQASKPPVSQKKAVLQALEVLPVAPPPEPRPLTAEEVKRLEEQEEDTFRELRIFLRNVTHRLAIDKRFRVFTKPVDPDEVPDYVTVIKQPMDLSSVISKIDLHKYLTVKDYLKDIDLICSNALEYNPDRDPGDRLIRHRACALRDTAYAIIKEELDEDFEQLCEEIQESRKKRGCSSSKYAPSYYHVMPKQNSPPVGDKKPDQEQNEKLKVPCTPVACSTPAQLKRKFHKKSKWHVGTKIKRRKISQAKDNSLNAMNSSSRSDTEDSQHTHAEHTEPGNTDESSVEESDKQNRLESNIDLKNNSSSSNIENELEEPKETTEGTELRKDRIVCRGDASASQVTDIPEDSESKEMDFLRMTLARGSQVEQQELISMEQALAILSQPTPSLVLDHKQLTNILKTVVKKSQKYNIFQLENLYAVISQCIYEHRRDYDKTALVQKMEQAVENFNCSRS

In this assay the parent is B1. Particulars: with h4_mouse H4c11, P62806.
For K128S, the “effect of a mutation on the interaction” value was “disrupting interaction”. Take Y670F: the “effect of a mutation on the interaction” value is “disrupting interaction”.
